This experiment addresses T1, CRB1-FLAG p.N1317H (human, UniProt P82279 26-1406, p.N1317H).
T1 construct: Crumbs homolog 1, canonical form, human, cDNA NM_202153 as printed, with a patient missense mutation; Made by site-directed mutagenesis of m1; also called CRB1 p.N1317H; p.C1317H; source: HEK293T, transfected, in lysate; not shown: Strep-Strep-FLAG, N-terminal, kept
T1 sequence (looked up): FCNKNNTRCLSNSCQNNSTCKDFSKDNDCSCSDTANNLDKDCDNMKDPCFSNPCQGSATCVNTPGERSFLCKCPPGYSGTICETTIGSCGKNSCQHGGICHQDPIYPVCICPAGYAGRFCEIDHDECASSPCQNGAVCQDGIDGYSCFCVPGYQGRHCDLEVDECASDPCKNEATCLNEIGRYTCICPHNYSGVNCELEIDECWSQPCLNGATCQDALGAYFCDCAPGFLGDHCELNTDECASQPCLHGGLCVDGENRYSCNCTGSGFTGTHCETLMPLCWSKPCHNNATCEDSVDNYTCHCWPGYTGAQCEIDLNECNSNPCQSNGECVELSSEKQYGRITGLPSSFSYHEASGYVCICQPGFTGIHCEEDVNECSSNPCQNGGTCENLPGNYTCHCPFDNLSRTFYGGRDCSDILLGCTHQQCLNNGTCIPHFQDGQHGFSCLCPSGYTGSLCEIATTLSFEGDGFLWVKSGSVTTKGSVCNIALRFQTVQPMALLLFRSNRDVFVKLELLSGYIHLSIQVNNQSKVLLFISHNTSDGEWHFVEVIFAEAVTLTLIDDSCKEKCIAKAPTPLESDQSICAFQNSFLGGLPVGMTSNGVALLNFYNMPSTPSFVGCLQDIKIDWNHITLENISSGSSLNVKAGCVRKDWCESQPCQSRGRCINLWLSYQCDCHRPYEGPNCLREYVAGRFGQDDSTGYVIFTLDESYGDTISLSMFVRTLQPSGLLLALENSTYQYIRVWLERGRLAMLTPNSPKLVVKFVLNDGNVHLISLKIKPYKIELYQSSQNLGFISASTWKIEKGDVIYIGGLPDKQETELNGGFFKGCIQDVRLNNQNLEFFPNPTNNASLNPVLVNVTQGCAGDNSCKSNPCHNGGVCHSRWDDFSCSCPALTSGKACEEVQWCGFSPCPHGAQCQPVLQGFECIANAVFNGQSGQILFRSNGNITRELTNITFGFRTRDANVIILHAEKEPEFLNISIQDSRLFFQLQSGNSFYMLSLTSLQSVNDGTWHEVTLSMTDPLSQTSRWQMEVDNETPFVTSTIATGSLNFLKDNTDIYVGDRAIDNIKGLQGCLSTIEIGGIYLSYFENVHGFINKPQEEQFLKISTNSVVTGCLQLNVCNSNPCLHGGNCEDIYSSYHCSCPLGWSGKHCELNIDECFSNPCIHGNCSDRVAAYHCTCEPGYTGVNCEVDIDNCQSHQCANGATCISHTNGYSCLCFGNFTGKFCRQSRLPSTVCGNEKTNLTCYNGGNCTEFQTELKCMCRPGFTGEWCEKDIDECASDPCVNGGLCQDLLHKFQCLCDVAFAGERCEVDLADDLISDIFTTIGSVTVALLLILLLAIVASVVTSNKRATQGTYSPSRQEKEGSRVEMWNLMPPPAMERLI
The experiment in a line: co-IP; HEK293T cells co-transfected pairwise with a FLAG and an HA construct, 48 h; lysis in TBS (30 mM Tris-HCl pH 7.4, 150 mM NaCl) with 0.5% Nonidet P40; FLAG-IP on ANTI-FLAG M2 Affinity Gel 60-90 min at 4°C, elution with FLAG peptide; Western blot with HA and FLAG antibodies; for mutants HA/FLAG signal in eluates relative to WT, three biological replicates. The conditions noted are these: partners not purified.

B1: Human canonical CRB2 (Crumbs homolog 2) (natural protein)
chain: not shown
notes: Crumbs homolog 2, human, cDNA NM_173689; Stood as bait (FLAG copy) and as prey (HA copy) in the pairwise co-IP matrix; each copy carries only one of the two tags; The FLAG copy was the bait of the mass spectrometry pull-downs; also called CRB2-FLAG; CRB2-HA; source: HEK293T, transfected, in lysate (co-IP); HEK293T, transfected, FLAG-IP on beads, washed and purified with 0.01% SDS (retina …)
As to B1, the “percent reduction of the interaction relative to CRB1 WT” value was 24%.

The values above are taken from PMC10992996, “Human CRB1 and CRB2 form homo- and heteromeric protein complexes in the retina” (Life Science Alliance, 2024).
